Test results from FireProtDB (doi:10.1074/jbc.m102741200).
“And” between values parts separate entries of the source, which are not always exact repeats. Equal entries are not always repeated.

B1: Alpha-amylase, P29957 (parent)
chain: MKLNKIITTAGLSLGLLLPSIATATPTTFVHLFEWNWQDVAQECEQYLGPKGYAAVQVSPPNEHITGSQWWTRYQPVSYELQSRGGNRAQFIDMVNRCSAAGVDIYVDTLINHMAAGSGTGTAGNSFGNKSFPIYSPQDFHESCTINNSDYGNDRYRVQNCELVGLADLDTASNYVQNTIAAYINDLQAIGVKGFRFDASKHVAASDIQSLMAKVNGSPVVFQEVIDQGGEAVGASEYLSTGLVTEFKYSTELGNTFRNGSLAWLSNFGEGWGFMPSSSAVVFVDNHDNQRGHGGAGNVITFEDGRLYDLANVFMLAYPYGYPKVMSSYDFHGDTDAGGPNVPVHNNGNLECFASNWKCEHRWSYIAGGVDFRNNTADNWAVTNWWDNTNNQISFGRGSSGHMAINKEDSTLTATVQTDMASGQYCNVLKGELSADAKSCSGEVITVNSDGTINLNIGAWDAMAIHKNAKLNTSSASSTESDWQRTVIFINAQTQSGQDMFIRGGIDHAYANANLGRNCQTSNFECAMPIRHNNLKNVTTSPWKANDNYLDWYGIENGQSSEAEGSATDWTTNVWPAGWGAEKTVNTDGFGVTPLNIWGEHYWMLDVDMDCSKAVNGWFELKAFIKNGQGWETAIAQDNAPYTSTNHMAQCGKINKFEFNNSGVVIRSF

Variants of: B1
Conditions: Pseudoalteromonas haloplanktis; pH 7.2; Thermal; DSC; MOPS 30 mM; NaCl 50 mM; reversible: yes(25 %); structure 1AQH; whole UniProt chain shown

| Variant | Tm [°C] | unfolding enthalpy (calorimetric) [kcal/mol] | unfolding enthalpy (van 't Hoff) [kcal/mol] |
| --- | --- | --- | --- |
| N36R | 43.3 | 193 | 231 |

Same assay, conditions: Pseudoalteromonas haloplanktis; pH 7.2; Thermal; DSC; MOPS 30 mM; NaCl 50 mM; reversible: yes(60 %); structure 1AQH; whole UniProt chain shown

| Variant | Tm [°C] | unfolding enthalpy (calorimetric) [kcal/mol] | unfolding enthalpy (van 't Hoff) [kcal/mol] |
| --- | --- | --- | --- |
| V220F | 45.4 | 234 | 296 |

Same assay, conditions: Pseudoalteromonas haloplanktis; pH 7.2; Thermal; DSC; MOPS 30 mM; NaCl 50 mM; reversible: yes(76 %); structure 1AQH; whole UniProt chain shown

| Variant | Tm [°C] | unfolding enthalpy (calorimetric) [kcal/mol] | unfolding enthalpy (van 't Hoff) [kcal/mol] |
| --- | --- | --- | --- |
| E303W | 41.4 | 186 | 234 |

Same assay, conditions: Pseudoalteromonas haloplanktis; pH 7.2; Thermal; DSC; MOPS 30 mM; NaCl 50 mM; reversible: yes(81 %); structure 1AQH; whole UniProt chain shown

| Variant | Tm [°C] | unfolding enthalpy (calorimetric) [kcal/mol] | unfolding enthalpy (van 't Hoff) [kcal/mol] |
| --- | --- | --- | --- |
| L243R | 42.5 | 217 | 187 |

Same assay, conditions: Pseudoalteromonas haloplanktis; pH 7.2; Thermal; DSC; MOPS 30 mM; NaCl 50 mM; reversible: yes(91 %); structure 1AQH; whole UniProt chain shown

| Variant | Tm [°C] | unfolding enthalpy (calorimetric) [kcal/mol] | unfolding enthalpy (van 't Hoff) [kcal/mol] |
| --- | --- | --- | --- |
| N174D V220F | 46.4 | 272 | 271 |

Same assay, conditions: Pseudoalteromonas haloplanktis; pH 7.2; Thermal; DSC; MOPS 30 mM; NaCl 50 mM; reversible: yes(96 %); structure 1AQH; whole UniProt chain shown

| Variant | Tm [°C] | unfolding enthalpy (calorimetric) [kcal/mol] | unfolding enthalpy (van 't Hoff) [kcal/mol] |
| --- | --- | --- | --- |
| R88E | 42.6 | 236 | 112 |

Same assay, conditions: Pseudoalteromonas haloplanktis; pH 7.2; Thermal; DSC; MOPS 30 mM; NaCl 50 mM; reversible: yes(97 %); structure 1AQH; whole UniProt chain shown

| Variant | Tm [°C] | unfolding enthalpy (calorimetric) [kcal/mol] | unfolding enthalpy (van 't Hoff) [kcal/mol] |
| --- | --- | --- | --- |
| N174D | 44.8 | 271 | 240 |

Same assay, conditions: Pseudoalteromonas haloplanktis; pH 7.2; Thermal; DSC; MOPS 30 mM; NaCl 50 mM; transition: 3; reversible: yes(30 %); structure 1AQH; whole UniProt chain shown

| Variant | unfolding enthalpy (calorimetric) | unfolding enthalpy (van 't Hoff) |
| --- | --- | --- |
| N312V | 88 kcal/mol and 59 kcal/mol | 133 kcal/mol and 114 kcal/mol |

Same assay, conditions: Pseudoalteromonas haloplanktis; pH 7.2; Thermal; DSC; MOPS 30 mM; NaCl 50 mM; transition: 3; reversible: yes(51 %); structure 1AQH; whole UniProt chain shown

| Variant | Tm [°C] | unfolding enthalpy (calorimetric) [kcal/mol] | unfolding enthalpy (van 't Hoff) [kcal/mol] |
| --- | --- | --- | --- |
| Q188I V220F | 44.7 | 83 | 121 |

Same assay, conditions: Pseudoalteromonas haloplanktis; pH 7.2; Thermal; DSC; MOPS 30 mM; NaCl 50 mM; transition: 3; reversible: yes(64 %); structure 1AQH; whole UniProt chain shown

| Variant | Tm | unfolding enthalpy (calorimetric) | unfolding enthalpy (van 't Hoff) |
| --- | --- | --- | --- |
| Q188I | 42.7 °C and 45.2 °C | 87 kcal/mol and 117 kcal/mol | 117 kcal/mol and 240 kcal/mol |

Same assay, conditions: Pseudoalteromonas haloplanktis; pH 7.2; Thermal; DSC; MOPS 30 mM; NaCl 50 mM; transition: 3; reversible: yes(85 %); structure 1AQH; whole UniProt chain shown

| Variant | Tm | unfolding enthalpy (calorimetric) | unfolding enthalpy (van 't Hoff) |
| --- | --- | --- | --- |
| T256V | 42.7 °C and 45.7 °C | 102 kcal/mol and 104 kcal/mol | 114 kcal/mol and 202 kcal/mol |

Same assay, conditions: Pseudoalteromonas haloplanktis; pH 7.2; Thermal; DSC; MOPS 30 mM; NaCl 50 mM; transition: 3; reversible: yes(95 %); structure 1AQH; whole UniProt chain shown

| Variant | unfolding enthalpy (calorimetric) | unfolding enthalpy (van 't Hoff) |
| --- | --- | --- |
| M403V | 127 kcal/mol and 84 kcal/mol | 96 kcal/mol and 137 kcal/mol |
